This note sets out measurements from US20090181019A1.

This experiment deals with IL-1 receptor (human) (UniProt P14778). The experiment can be described thus: cell-based or functional assay.
UniProt P14778, sequence (P14778 18-569): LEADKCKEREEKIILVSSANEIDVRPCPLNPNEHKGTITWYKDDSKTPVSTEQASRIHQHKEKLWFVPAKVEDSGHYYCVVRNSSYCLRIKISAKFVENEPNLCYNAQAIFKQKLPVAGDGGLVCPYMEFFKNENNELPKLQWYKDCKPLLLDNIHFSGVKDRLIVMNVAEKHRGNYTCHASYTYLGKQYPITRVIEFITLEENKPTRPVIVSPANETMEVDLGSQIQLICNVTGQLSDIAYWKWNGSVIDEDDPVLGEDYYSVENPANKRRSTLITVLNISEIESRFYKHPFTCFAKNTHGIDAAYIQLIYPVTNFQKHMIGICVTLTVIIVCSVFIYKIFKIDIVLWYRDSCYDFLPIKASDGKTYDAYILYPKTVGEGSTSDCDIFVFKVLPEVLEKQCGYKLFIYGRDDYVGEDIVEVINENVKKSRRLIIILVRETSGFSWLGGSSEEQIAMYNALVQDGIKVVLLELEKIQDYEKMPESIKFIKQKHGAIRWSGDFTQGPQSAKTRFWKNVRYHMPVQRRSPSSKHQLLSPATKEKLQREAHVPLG

In turn, “Kineret® (anakinra) (from UniProt P18510 26-177) (ligand)” registered an IC50, inhibition of IL-1β stimulated release of IL-8 in human whole blood (100 pM rhIL-1β, IL-8 ELISA) of 53.4 pM.
